Results reported in patent publication US20070184519A1 (published 2007).

Experiments:
HLA-DR DRB1*0401 = HLA-DR DRB1*0401 (human); assay: competition with 125I probe, purified MHC II
HLA-DR DRB1*0101 = HLA-DR DRB1*0101 (human); assay: competition with 125I probe, purified MHC II
HLA-DR DRB5*0101 = HLA-DR DRB5*0101 (human); assay: competition with 125I probe, purified MHC II
HLA-DR DRB4*0101 = HLA-DR DRB4*0101 (human); assay: competition with 125I probe, purified MHC II
HLA-DR DRB1*0405 (human) = target: T1, HLA-DR DRB1*0405 (human); assay: competition with 125I probe, purified MHC II
T1 chain 1: not shown
T1 chain 2: not shown

HLA-DR DRB1*0802 = HLA-DR DRB1*0802 (human); assay: competition with 125I probe, purified MHC II
HLA-DR DRB3*0101 = HLA-DR DRB3*0101 (human); assay: competition with 125I probe, purified MHC II
DRB1*1302 = DRB1*1302 (human, UniProt P01903 26-216, limits assumed); assay: inhibition of 125I-labelled probe peptide binding to purified HLA class II
DRB1*0901 = DRB1*0901 (human, UniProt P01903 26-216, limits assumed); assay: as above
DRB1*1101 = DRB1*1101 (human, UniProt P01903 26-216, limits assumed); assay: as above
[1] = target: HLA-DR molecule DRB1*1101 (human); assay: competition vs 125I probe, purified HLA
[2] = target: HLA-DR molecule DRB4*0101 (human); assay: competition vs 125I probe, purified HLA
[3] = target: HLA-DR molecule DRB1*1302 (human); assay: competition vs 125I probe, purified HLA
[4] = target: HLA-DR molecule DRB1*0404 (human); assay: competition vs 125I probe, purified HLA
[5] = target: HLA-DR molecule DRB5*0101 (human); assay: competition vs 125I probe, purified HLA
[6] = target: HLA-DR molecule DRB1*0401 (human); assay: competition vs 125I probe, purified HLA
[7] = target: HLA-DR molecule DRB1*0101 (human); assay: competition vs 125I probe, purified HLA
[8] = target: HLA-DR molecule DRB1*0701 (human); assay: competition vs 125I probe, purified HLA
[9] = target: HLA-DR molecule DRB1*0301 (human); assay: competition vs 125I probe, purified HLA
[10] = target: HLA-DR molecule DRB1*0802 (human); assay: competition vs 125I probe, purified HLA
[11] = target: HLA-DR molecule DRB1*0405 (human); assay: competition vs 125I probe, purified HLA

YLDPLIRGLLARPAKLQV [NP7 (TPO Y535-551)]
IC50 (HLA-DR DRB1*0401): 687 nM | IC50 (HLA-DR DRB1*0101): 1.6 nM | IC50 (HLA-DR DRB5*0101): 476 nM | IC50 (HLA-DR DRB4*0101): 341 nM

PLGFFPDHQLDPAFGANSNNPDWDFNP (modifications not checked) [HBV Pre S1 21-47]
IC50 (HLA-DR DRB1*0405 (human)): 31 nM

DTPYLDITYHFVMQRLPL [Torp. Ach Rec. 195-212]
IC50 (HLA-DR DRB1*0802): 555 nM | IC50 (HLA-DR DRB1*0401): 160 nM | IC50 (HLA-DR DRB3*0101): 800 nM | IC50 (HLA-DR DRB1*0101): 385 nM | IC50 (HLA-DR DRB4*0101): 261 nM

DTFRKLFRVYSNDLR
IC50 (DRB1*1302): 66 nM | IC50 (DRB1*0901): 1640 nM | IC50 (DRB1*1101): 3.6 nM

DTFRKLFRVYSNFGR
IC50 (DRB1*1101): 2.8 nM

GLRSLGTLLRALGAQ [EPO 101 analog GLRSLGTLLRALGAQ]
IC50 [1]: 1.4 nM | IC50 [2]: 473 nM | IC50 [3]: 739 nM | IC50 [4]: 13 nM | IC50 [5]: 13 nM

GLRSLTTRLRALGAQ [EPO 101 analog GLRSLTTRLRALGAQ]
IC50 [6]: 211 nM | IC50 [7]: 2.4 nM | IC50 [8]: 4370 nM

GLRSLTTLARALGAQ [EPO 101 analog GLRSLTTLARALGAQ]
IC50 [9]: 234 nM | IC50 [1]: 0.93 nM | IC50 [3]: 610 nM | IC50 [10]: 7.1 nM | IC50 [4]: 13 nM

GLRSLTTLTRALGAQ [EPO 101 analog GLRSLTTLTRALGAQ]
IC50 [1]: 3 nM | IC50 [6]: 394 nM | IC50 [5]: 13 nM

GLRSLTTLPRALGAQ [EPO 101 analog GLRSLTTLPRALGAQ]
IC50 [1]: 0.62 nM | IC50 [11]: 524 nM | IC50 [2]: 112 nM | IC50 [10]: 7.3 nM | IC50 [4]: 13 nM | IC50 [5]: 2.8 nM

GLRSLTTLLGALGAQ [EPO 101 analog GLRSLTTLLGALGAQ]
IC50 [7]: 1.3 nM

GLRSLTTLLDALGAQ [EPO 101 analog GLRSLTTLLDALGAQ]
IC50 [10]: 240 nM | IC50 [4]: 9.3 nM
